The values below come from patent US20070172470A1, “Phosphatase regulation of nucleic acid transcription” (The Regents of the University of California, priority 2003, published 2007).

Experiment [1] relates to ElALuc, pGL3-Luc and Gal4-TATA-Luc constructs. Description: Luciferase reporter assay, basal promoter activity. The experiment is classed as cell-based, human. Conditions: cotransfected. The text has this: (§1) Gal4-DNA binding domain-SCP1 fusion protein expression plasmids-were cotransfected in HEK293 cells with a Gal 4-TKLuc reporter plasmid and luciferase gene expression quantitated. In all panels, results of triplicate transfections are shown +/− SD. Data is expressed as fold-activation experimental/control). […] The indicated amounts of SCP1 or mutant SCP1 expression plasmids were cotransfected in HEK293 cells along with Gal 4-VP16 expression and Gal 4-TK-Luc reporter plasmids and luciferase activity was quantitated. […] The indicated receptor expression plasmids were cotransfected with their cognate promoter-reporter plasmids with or without SCP1 or mutant SCP1 expression plasmids. Cells were treated or untreated with receptor-specific ligands as described infra. […] The indicated concentrations of SCP1 and mutant SCP1 expression plasmids were cotransfected with LMX1 and E47 expression plasmids and the rat insulin 1 promoter-luciferase reporter gene. Luciferase activity was measured as described.
(§2) Tissue Culture and Transfections: Human 293, COS7 and CV1 cells were grown at 37° C. in DMEM supplemented with 10% normal calf serum (BRL). Sub-confluent cells were transfected in 6 well tissue culture dishes using Effectene (Qiagen) according to the manufacturer's instructions. Reporter and activator plasmids (100 ng each) and Flag SCP1 (80 ng) or its mutant were used per well. […]
A general note: In a reporter assay the amount or activity of a reporter protein is the signal.

Experiment [2] concerns 28 aa CTD heptad repeat peptide with Ser 5 phosphate or Ser 2 phosphate. Description: CTD phosphopeptide phosphatase assay (malachite green). The experiment is classed as biochemical. Conditions: 25 μM phosphopeptide, 60 mins at 37° C. On the procedure:
The indicated amounts of. SCP1 were incubated with the phosphopeptide substrate and phosphate released was measured as described infra.
N-terminal biotinylated CTD phosphopeptides, comprised of 4 tandem repeats YSPTSPS and containing phosphoserine at position 2 or position 5, were synthesized (Alpha Diagnostics, San Antonio, Tex.). Phosphatase reaction mixtures (50 μl) containing 50 mM Tris-acetate, pH 5.5, 10 mM MgCl2, 0.5 mM DTT, 10% glycerol, 25 μM of phosphopeptide and wild type or mutant SCP1 were incubated for 60 mins at 37° C. The reactions were quenched by adding 0.5 ml of malachite green (Biomol). Phosphate release was measured at A620 and quantified relative to a phosphate standard curve.

The test system of experiment [3] is glucocorticoid receptor activity on GRE-TK-Luc construct. Briefly: Luciferase reporter assay, dexamethasone-stimulated glucocorticoid receptor. The experiment is classed as cell-based, human. Conditions: 100 nM dexamethasone.
Source text: as §1, §2

B1: SCP1: small CTD phosphatase-1, full-length 261 aa human protein, SEQ ID NO:2 (protein, listed as Homo sapiens)
chain: MDSSAVITQISKEEARGPLRGKGDQKSAASQKPRSRGILHSLFCCVCRDDGEALPAHSGAPLLVEENGAIPKTPVQYLLPEAKAQDSDKICVVIDLDETLVHSSFKPVNNADFIIPVEIDGVVHQVYVLKRPHVDEFLQRMGELFECVLFTASLAKYADPVADLLDKWGAFRARLFRESCVFHRGNYVKDLSRLGRDLRRVLILDNSPASYVFHPDNAVPVASWFDNMSDTELHDLLPFFEQLSRVDDVYSVLRQPRPGS
Regarding B1, the “reporter gene expression from basal promoter constructs” value in experiment [1] is listed as “no significant effect”. In addition, the “dephosphorylation of Ser 5 versus Ser 2 phosphopeptide” value in experiment [2] is “preferentially dephosphorylates the Ser 5 phosphopeptide”. Moreover, the “dexamethasone-stimulated glucocorticoid receptor activity” value in experiment [3] was “inhibited”.
